Assay [1] deals with T1, human claudin 3 (human, UniProt O15551 1-220).
T1 construct: cell lysate in the immunoprecipitation; also called CLDN3; hCLDN3
T1 sequence: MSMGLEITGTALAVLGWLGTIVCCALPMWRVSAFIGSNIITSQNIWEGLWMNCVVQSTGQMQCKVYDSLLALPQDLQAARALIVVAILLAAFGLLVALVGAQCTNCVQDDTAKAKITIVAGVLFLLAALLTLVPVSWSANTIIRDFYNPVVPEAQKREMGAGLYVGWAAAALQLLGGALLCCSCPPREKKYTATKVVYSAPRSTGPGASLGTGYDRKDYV
Briefly: LigandTracer Green, FITC-conjugated antibody on hCLDN3/HEK293 cells against HEK293, 1:1 two state model.

For assay [2], the target named is T1, human claudin 3. Briefly: LigandTracer Green, FITC-conjugated antibody on hCLDN3/TOV-112D cells against TOV-112D, 1:1 two state model.
In assay [3] the target is T1, human claudin 3. Briefly: LigandTracer Green, FITC-conjugated antibody on hCLDN3/HEK293 cells against HEK293, 1:1 two state model (ka1).
Assay [4] addresses T1, human claudin 3. Briefly: LigandTracer Green, FITC-conjugated antibody on hCLDN3/HEK293 cells against HEK293, 1:1 two state model (kd1).
The target of assay [5] is T1, human claudin 3. Briefly: LigandTracer Green, FITC-conjugated antibody on hCLDN3/TOV-112D cells against TOV-112D, 1:1 two state model (ka1).
Assay [6] concerns the target T1, human claudin 3. Briefly: LigandTracer Green, FITC-conjugated antibody on hCLDN3/TOV-112D cells against TOV-112D, 1:1 two state model (kd1).

The results in this text go back to patent US12098198 (ABION, dated 2024).

One may read the Kd as the equilibrium constant for the complex coming apart. A low value points to a tighter complex. In general, kon refers to the second-order rate constant of association. Low values mean slower complex formation, high ones faster complex formation. Usually koff stands for the rate constant with which the complex falls apart. The low end stands for slow dissociation, the high end for fast dissociation.

B1: 4G3 IgG antibody (antibody, V domains shown)
VH: EVQLLESGGGLVQPGGSLRLSCAASGFTFSSYAMSWVRQAPGKGLEWVSIINPSGASTSHAQRFQGRFTISRDNSKNTLYLQMNSLRAEDTAVYYCARYGRYGSFDIWGQGTLVTVSS
VL: QSVLTQPPSASGTPGQRVTISCSGSTSNIGRNYVSWYQQLPGTAPKLLIYDTSNKHFGVPDRFSGSKSGTSASLAISGLRSEDEADYYCQSYDSSKVVFGGGTKLTVL
Regarding B1, the Kd with human claudin 3 [1] was 4.03 nM; in the assay with human claudin 3 [2], 2.35 nM. Also, the kon with human claudin 3 [3] came out at 46600 M⁻¹ s⁻¹; in the assay with human claudin 3 [5] it was 47400 M⁻¹ s⁻¹. Also, the koff with human claudin 3 [4] stood at 0.000671 s⁻¹; in the assay with human claudin 3 [6], 0.000337 s⁻¹.
